B1: 051116-C05 (protein)
chain: MALPVTALLLPLALLLHAARPDIVMTQSPDSLAVSLGERATINCRASKSVSTSGYSFMHWYQQKPGQPPKLLIYLASNLESGVPDRFSGSGSGTDFTLTISSLQAEDVAVYYCQHSREVPWTFGQGTKVEIKRLEDLKNVFPPEVAVFEPSEAEISHTQKATLVCLATGFYPDHVELSWWVNGKEVHSGVSTDPQPLKEQPALNDSRYCLSSRLRVSATFWQNPRNHFRCQVQFYGLSENDEWTQDRAKPVTQIVSAEAWGRADCGFTSESYQQGVLSATILYEILLGKATLYAVLVSALVLMAMVKRKDSRGRAKRSGSGATNFSLLKQAGDVEENPGPTSMDWIWRILFLVGAATGAHSFEQVQLVQSGAEVKKPGASVKVSCKASGYTFTNYGMNWVRQAPGQGLEWMGWINTYTGEPTYADAFKGRFAFSLDTSTSTAYLQINSLRSDDTAVYYCARDYGDYGMDYWGQGTTVTVSSTRIQNPDPAVYQLRDSKSSDKSVCLFTDFDSQTNVSQSKDSDVYITDKTVLDMRSMDFKSNSAVAWSNKSDFACANAFNNSIIPEDTFFPSPESSCDVKLVEKSFETDTNLNFQNLSVIGFRILLLKVAGFNLLMTLRLWSSRAKRSGSGVKQTLNFDLLKLAGDVESNPGPSRGHMTEYKPTVRLATRDDVPRAVRTLAAAFADYPATRHTVDPDRHIERVTELQELFLTRVGLDIGKVWVADDGAAVAVWTTPESVEAGAVFAEIGPRMAELSGSRLAAQQQMEGLLAPHRPKEPAWFLATVGVSPDHQGKGLGSAVVLPGVEAAERAGVPAFLETSAPRNLPFYERLGFTVTADVEVPEGPRTWCMTRKPGA
modifications: Synthetic Immune Receptor (SIR)
B2: 031517-S02 (protein)
chain: MALPVTALLLPLALLLHAARPLEGKPIPNPLLGLDSTGSGEDLKNVFPPEVAVFEPSKAEIAHTQKATLVCLATGFYPDHVELSWWVNGKEVHSGVCTDPQPLKEQPALNDSRYCLSSRLRVSATFWQNPRNHFRCQVQFYGLSENDEWTQDRAKPVTQIVSAEAWGRADCGITSASYHQGVLSATILYEILLGKATLYAVLVSALVLMAMVKRKDSRGRAKRSGSGATNFSLLKQAGDVEENPGPTSMALPVTALLLPLALLLHAARPDIVLTQSPASLAVSLGERATINCRASESVSVIGAHLIHWYQQKPGQPPKLLIYLASNLETGVPARFSGSGSGTDFTLTISSLQAEDAAIYYCLQSRIFPRTFGQGTKLEIKGGGGSGGGGSGGGGSQVQLVQSGSELKKPGESVKISCKASGYTFTDYSINWVKQAPGQGLKWMGWINTETREPAYAYDFRGRFVFSLDTSASTAYLQISSLKAEDTAVYFCALDYSYAMDYWGQGTLVTVSSTREQKLISEEDGSGIQNPDPAVYQLRDSKSSDKSVCLFTDFDSQTNVSQSKDSDVYITDKCVLDMRSMDFKSNSAVAWSNKSDFACANAFNNSIIPEDTFFPSSDVPCDVKLVEKSFETDTNLNFQNLSVIGFRILLLKVAGFNLLMTLRLWSSRAKRSGSGVKQTLNFDLLKLAGDVESNPGPSRGHMTEYKPTVRLATRDDVPRAVRTLAAAFADYPATRHTVDPDRHIERVTELQELFLTRVGLDIGKVWVADDGAAVAVWTTPESVEAGAVFAEIGPRMAELSGSRLAAQQQMEGLLAPHRPKEPAWFLATVGVSPDHQGKGLGSAVVLPGVEAAERAGVPAFLETSAPRNLPFYERLGFTVTADVEVPEGPRTWCMTRKPGA
B3: 090116-G02 (protein)
chain: MALPVTALLLPLALLLHAARPLEGKPIPNPLLGLDSTGSGEDLKNVFPPEVAVFEPSKAEIAHTQKATLVCLATGFYPDHVELSWWVNGKEVHSGVCTDPQPLKEQPALNDSRYCLSSRLRVSATFWQNPRNHFRCQVQFYGLSENDEWTQDRAKPVTQIVSAEAWGRADCGITSASYHQGVLSATILYEILLGKATLYAVLVSALVLMAMVKRKDSRGRAKRSGSGATNFSLLKQAGDVEENPGPTSTMALPVTALLLPLALLLHAARPDIVMTQTPLTLSVTIGQPASISCKSSQSLLDSDGKTYLNWLLQRPGQSPERLIYLVSKLDSGVPDRFTGSGSGTDFTLKISRVEAEDLGVYCCWQGTHFPYTFGGGTKVEIKGGGGGSGGGGSGGGGSQVQLQQPGAELVRPGASVKLSCKASGYTFTSYWMNWVKQRPGQGLEWIGMIDPSDSETHYNHIFKDKATLTVDKSSSTAYLQLSSLTSEDSAVYYCARNLYLWGQGTSVTVSSTREQKLISEEDGSGIQNPDPAVYQLRDSKSSDKSVCLFTDFDSQTNVSQSKDSDVYITDKCVLDMRSMDFKSNSAVAWSNKSDFACANAFNNSIIPEDTFFPSSDVPCDVKLVEKSFETDTNLNFQNLSVIGFRILLLKVAGFNLLMTLRLWSSRAKRSGSGVKQTLNFDLLKLAGDVESNPGPSRGHMTEYKPTVRLATRDDVPRAVRTLAAAFADYPATRHTVDPDRHIERVTELQELFLTRVGLDIGKVWVADDGAAVAVWTTPESVEAGAVFAEIGPRMAELSGSRLAAQQQMEGLLAPHRPKEPAWFLATVGVSPDHQGKGLGSAVVLPGVEAAERAGVPAFLETSAPRNLPFYERLGFTVTADVEVPEGPRTWCMTRKPGA
modifications: Synthetic Immune Receptor (SIR)
B4: 110116-G04 (protein)
chain: MALPVTALLLPLALLLHAARPLEQKLISEEDLGSGDRPDPAVYQLRDSKSSDKSVCLFTDFDSQTNVSQSKDSDVYITDKCVLDMRSMDFKSNSAVAWSNKSDFACANAFNNSIIPEDTFFPSPESSCDVKLVEKSFETDTNLNFQNLSVIGFRILLLKVAGFNLLMTLRLWSSSSRAKRSGSGVKQTLNFDLLKLAGDVESNPGPTSTMALPVTALLLPLALLLHAARPDIVMTQTPLTLSVTIGQPASISCKSSQSLLDSDGKTYLNWLLQRPGQSPERLIYLVSKLDSGVPDRFTGSGSGTDFTLKISRVEAEDLGVYCCWQGTHFPYTFGGGTKVEIKGGGGGSGGGGSGGGGSQVQLQQPGAELVRPGASVKLSCKASGYTFTSYWMNWVKQRPGQGLEWIGMIDPSDSETHYNHIFKDKATLTVDKSSSTAYLQLSSLTSEDSAVYYCARNLYLWGQGTSVTVSSTRGKPIPNPLLGLDSTGSGEDLKNVFPPEVAVFEPSEAEISHTQKATLVCLATGFYPDHVELSWWVNGKEVHSGVCTDPQPLKEQPALNDSRYCLSSRLRVSATFWQNPRNHFRCQVQFYGLSENDEWTQDRAKPVTQIVSAEAWGRADCGFTSESYQQGVLSATILYEILLGKATLYAVLVSALVLMAMVKRKDSRGRAKRSGSGATNFSLLKQAGDVEENPGPSRGHMTEYKPTVRLATRDDVPRAVRTLAAAFADYPATRHTVDPDRHIERVTELQELFLTRVGLDIGKVWVADDGAAVAVWTTPESVEAGAVFAEIGPRMAELSGSRLAAQQQMEGLLAPHRPKEPAWFLATVGVSPDHQGKGLGSAVVLPGVEAAERAGVPAFLETSAPRNLPFYERLGFTVTADVEVPEGPRTWCMTRKPGA
modifications: Synthetic Immune Receptor (SIR)
B5: 111215-J02 (protein)
chain: MDWIWRILFLVGAATGAHSFEVQLVESGGGSVQAGGSLRLSCTTSGRALNMYVMGWFRQAPGNEREFVAATSSSGGSTSYPDSVKGRFTISRDNAKNTVYLQMNSLKPEDTAAYRCAASPYVSTPTMNILEEYRYWGLGTQVTVSSLEGKPIPNPLLGLDSTGSGEDLKNVFPPEVAVFEPSEAEISHTQKATLVCLATGFYPDHVELSWWVNGKEVHSGVCTDPQPLKEQPALNDSRYCLSSRLRVSATFWQNPRNHFRCQVQFYGLSENDEWTQDRAKPVTQIVSAEAWGRADCGFTSESYQQGVLSATILYEILLGKATLYAVLVSALVLMAMVKRKDSRGRAKRSGSGATNFSLLKQAGDVEENPGPTSMDWIWRILFLVGAATGAHSFEVQLVESGGGLVQAGGSLRLSCAASGSIFSGNVMGWYRRQAPGKEREWVAAIASGGSIYYRDSVKGRFTISRDNAKNTVYLQMNSLKPEDTAVYYCNSHPPTLPYWGLGTQVTVSSTREQKLISEEDGSGIQNPDPAVYQLRDSKSSDKSVCLFTDFDSQTNVSQSKDSDVYITDKCVLDMRSMDFKSNSAVAWSNKSDFACANAFNNSIIPEDTFFPSPESSCDVKLVEKSFETDTNLNFQNLSVIGFRILLLKVAGFNLLMTLRLWSSRAKRSGSGVKQTLNFDLLKLAGDVESNPGPSRGHMTEYKPTVRLATRDDVPRAVRTLAAAFADYPATRHTVDPDRHIERVTELQELFLTRVGLDIGKVWVADDGAAVAVWTTPESVEAGAVFAEIGPRMAELSGSRLAAQQQMEGLLAPHRPKEPAWFLATVGVSPDHQGKGLGSAVVLPGVEAAERAGVPAFLETSAPRNLPFYERLGFTVTADVEVPEGPRTWCMTRKPGA
modifications: Synthetic Immune Receptor (SIR)
B6: 111215-K06 (protein)
chain: MDWIWRILFLVGAATGAHSFEVQLVESGGGSVQAGGSLRLSCTTSGRALNMYVMGWFRQAPGNEREFVAATSSSGGSTSYPDSVKGRFTISRDNAKNTVYLQMNSLKPEDTAAYRCAASPYVSTPTMNILEEYRYWGLGTQVTVSSLEGKPIPNPLLGLDSTGSGEDLKNVFPPEVAVFEPSKAEIAHTQKATLVCLATGFYPDHVELSWWVNGKEVHSGVCTDPQPLKEQPALNDSRYCLSSRLRVSATFWQNPRNHFRCQVQFYGLSENDEWTQDRAKPVTQIVSAEAWGRADCGITSASYHQGVLSATILYEILLGKATLYAVLVSALVLMAMVKRKDSRGRAKRSGSGATNFSLLKQAGDVEENPGPTSMDWIWRILFLVGAATGAHSFEVQLVESGGGLVQAGGSLRLSCAASGSIFSGNVMGWYRRQAPGKEREWVAAIASGGSIYYRDSVKGRFTISRDNAKNTVYLQMNSLKPEDTAVYYCNSHPPTLPYWGLGTQVTVSSTREQKLISEEDGSGIQNPDPAVYQLRDSKSSDKSVCLFTDFDSQTNVSQSKDSDVYITDKCVLDMRSMDFKSNSAVAWSNKSDFACANAFNNSIIPEDTFFPSSDVPCDVKLVEKSFETDTNLNFQNLSVIGFRILLLKVAGFNLLMTLRLWSSRAKRSGSGVKQTLNFDLLKLAGDVESNPGPSRGHMTEYKPTVRLATRDDVPRAVRTLAAAFADYPATRHTVDPDRHIERVTELQELFLTRVGLDIGKVWVADDGAAVAVWTTPESVEAGAVFAEIGPRMAELSGSRLAAQQQMEGLLAPHRPKEPAWFLATVGVSPDHQGKGLGSAVVLPGVEAAERAGVPAFLETSAPRNLPFYERLGFTVTADVEVPEGPRTWCMTRKPGA
modifications: Synthetic Immune Receptor (SIR)

Tested on: target antigen-expressing cell line
Test: Jurkat NFAT-GFP assay, coculture with target cell lines expressing the respective target antigen (summary Table 10A)
Assay type: cell-based, human
Set-up: key: The signs +/−, +, 2+ etc. after the name of the cell lines indicate the relative degree of positivity on the Jurkat-NFAT-GFP assay as measured by the % GFP positive cells; +: relative degree of positivity on the Jurkat-NFAT-GFP assay as measured by the % GFP positive cells; 2+: relative degree of positivity on the Jurkat-NFAT-GFP assay as measured by the % GFP positive cells
Conditions: relative % GFP positive cells; for NFAT-GFP ASSAY Positive Cell lines: THP1: SIR-expressing Jurkat-NFAT-GFP cells cocultured with THP1; for NFAT-GFP ASSAY Positive Cell lines: RAJI: SIR-expressing Jurkat-NFAT-GFP cells cocultured with RAJI; for NFAT-GFP ASSAY Positive Cell lines: Bv173: SIR-expressing Jurkat-NFAT-GFP cells cocultured with Bv173
How it was run: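 Jurkat cells carrying an NFAT-driven GFP reporter and lentivirally expressing a SIR were cocultured with antigen-bearing target cells (E:T ~1:2) for about 4–18 h. GFP induction read by flow cytometry as % GFP+ cells, scored positive and graded (+/−, +, 2+) against parental Jurkat-NFAT-GFP cells.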

| Molecule | NFAT-GFP ASSAY Positive Cell lines: THP1 | NFAT-GFP ASSAY Positive Cell lines: RAJI | NFAT-GFP ASSAY Positive Cell lines: Bv173 | other results |
| --- | --- | --- | --- | --- |
| B1 | THP1 (+/−) |  |  |  |
| B2 |  |  |  | NFAT-GFP ASSAY Positive Cell lines: L363 (SIR-expressing Jurkat-NFAT-GFP cells cocultured with L363): L363 (+/−), U266; NFAT-GFP ASSAY Positive Cell lines: U266 (SIR-expressing Jurkat-NFAT-GFP cells cocultured with U266): (+/−) |
| B3 |  | RAJI (+) |  |  |
| B4 |  | RAJI (+/−) |  |  |
| B5 |  |  | (+) | NFAT-GFP ASSAY Positive Cell lines: MOLM13 (SIR-expressing Jurkat-NFAT-GFP cells cocultured with MOLM13): MOLM13 (+), Bv173 |
| B6 | (+), |  | Bv173 (+), THP1 |  |
